Assays:
GST–eEF2K[1–402]–His6 = biological target: T1, GST–eEF2K[1–402]–His6 (human, UniProt O00418 1-402); assay: ELISA
T1 sequence: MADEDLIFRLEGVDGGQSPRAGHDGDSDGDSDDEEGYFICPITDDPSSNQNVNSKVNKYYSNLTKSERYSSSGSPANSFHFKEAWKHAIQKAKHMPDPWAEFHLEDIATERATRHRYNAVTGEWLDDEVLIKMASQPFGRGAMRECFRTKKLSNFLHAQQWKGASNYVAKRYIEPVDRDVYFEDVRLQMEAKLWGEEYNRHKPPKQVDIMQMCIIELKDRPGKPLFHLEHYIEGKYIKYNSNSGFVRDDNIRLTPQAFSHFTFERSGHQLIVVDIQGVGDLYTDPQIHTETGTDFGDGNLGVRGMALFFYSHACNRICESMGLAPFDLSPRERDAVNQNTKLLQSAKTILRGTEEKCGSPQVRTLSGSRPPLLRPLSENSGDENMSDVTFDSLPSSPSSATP

His6–Zb–eEF2K[48–336] = biological target: T2, His6–Zb–eEF2K[48–336] (human, UniProt O00418 48-336); assay: pull-down
T2 sequence: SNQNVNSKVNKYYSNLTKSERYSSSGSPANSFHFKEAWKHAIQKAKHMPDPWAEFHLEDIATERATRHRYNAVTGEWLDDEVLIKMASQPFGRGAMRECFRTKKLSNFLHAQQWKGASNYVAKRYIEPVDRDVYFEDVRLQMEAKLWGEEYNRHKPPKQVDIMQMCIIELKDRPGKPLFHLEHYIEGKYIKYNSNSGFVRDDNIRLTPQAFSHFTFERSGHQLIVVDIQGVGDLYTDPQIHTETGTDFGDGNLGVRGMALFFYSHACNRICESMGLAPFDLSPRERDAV

eEF2K[48–336] = biological target: T3, eEF2K[48–336] (human, UniProt O00418 48-336); assay: SEC
T3 sequence: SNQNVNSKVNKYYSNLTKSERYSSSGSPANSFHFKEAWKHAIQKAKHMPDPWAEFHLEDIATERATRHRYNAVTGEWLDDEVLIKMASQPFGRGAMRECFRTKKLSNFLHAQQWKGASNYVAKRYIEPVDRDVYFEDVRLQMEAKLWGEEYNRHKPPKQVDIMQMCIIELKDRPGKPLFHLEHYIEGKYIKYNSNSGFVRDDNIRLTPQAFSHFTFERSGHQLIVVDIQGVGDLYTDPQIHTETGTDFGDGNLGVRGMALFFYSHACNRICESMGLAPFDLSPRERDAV

B1: GST–eEF2K[478–725] (domain or fragment)
chain: SGRVCVEKWNLLNSSRLHLPRASAVALEVQRLNALDLEKKIGKSILGKVHLAMVRYHEGGRFCEKGEEWDQESAVFHLEHAANLGELEAIVGLGLMYSQLPHHILADVSLKETEENKTKGFDYLLKAAEAGDRQSMILVARAFDSGQNLSPDRCQDWLEALHWYNTALEMTDCDEGGEYDGMQDEPRYMMLAREAEMLFTGGYGLEKDPQRSGDLYTQAAEAAMEAMKGRLANQYYQKAEEAWAQMEE
**Q.** Does B1 bind (GST–eEF2K[1–402]–His6)?
**A.** binds

B2: His6–eEF2K[490–725] (domain or fragment)
chain: NSSRLHLPRASAVALEVQRLNALDLEKKIGKSILGKVHLAMVRYHEGGRFCEKGEEWDQESAVFHLEHAANLGELEAIVGLGLMYSQLPHHILADVSLKETEENKTKGFDYLLKAAEAGDRQSMILVARAFDSGQNLSPDRCQDWLEALHWYNTALEMTDCDEGGEYDGMQDEPRYMMLAREAEMLFTGGYGLEKDPQRSGDLYTQAAEAAMEAMKGRLANQYYQKAEEAWAQMEE
**Q.** Does B2 bind (His6–Zb–eEF2K[48–336])?
**A.** binds

B3: eEF2K[490–725] (domain or fragment)
chain: NSSRLHLPRASAVALEVQRLNALDLEKKIGKSILGKVHLAMVRYHEGGRFCEKGEEWDQESAVFHLEHAANLGELEAIVGLGLMYSQLPHHILADVSLKETEENKTKGFDYLLKAAEAGDRQSMILVARAFDSGQNLSPDRCQDWLEALHWYNTALEMTDCDEGGEYDGMQDEPRYMMLAREAEMLFTGGYGLEKDPQRSGDLYTQAAEAAMEAMKGRLANQYYQKAEEAWAQMEE
**Q.** Does B3 bind (eEF2K[48–336])?
**A.** binds

— paper PMC3268225 (Biochemical Journal, 2011)
